Test results as given in the supplement of paper PMC7877785.
± gives the uncertainty stated by the source.

Test: self-splicing fitness, log relative to wild type (ln ratio); higher = more splicing; Tetrahymena group I intron in knt gene, E. coli kanamycin selection, DiMSum; sequences stand for … in CUCUCU…GGAGGGAAAAGUUAUCAGGCAUGCACCUGGUAGCUAGUCUUUAAACCAAUAGAUUGCAUCGGUUUAAAAGGCAAGACCGUCAAAUUGCGGGAAAGGGGUCAACAGCCGUUCAGUACCAAGUCUCAGGGGAAACUUUGAGAUGGCCUUGCAAAGGGUAUGGUAAUAAGCUGACGGACAUGGUCCUAACCACGCAGCCAAGUCCUAAGUCAACAGAUCUUCUGUUGAUAUGGAUGCAGUUCACAGACUAAAUGUCGGUCGGGGAAGAUGUAUUCUUCUCAUAAGAUAUAGUCGGACCUCUCCUUAAUGGGAGCUAGCGGAUGAAGUGAUGCAACACUGGAGCCGCUGGGAACUAAUUUGUAUGCGAAAGUAUAUUGAUUAGUUUUGGAGUACUCGUGGUCG
Outline: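 Six replicate transformations of E. coli BL21(DE3) with a pET-22b(+) library were grown overnight at 37°C or 30°C. The library randomised all eight P1ex-region intron nucleotides, the intron lying in the knt kanamycin-resistance gene, and plates were LB agar with or without 25 μg/mL kanamycin plus 100 μg/mL carbenicillin, 50 μM IPTG and 0.2% rhamnose. Pooled colonies were amplicon-sequenced on an Illumina HiSeq 2500, and fitness is the DiMSum error-weighted combination of wild-type-normalised replicate fold changes, kanamycin versus none.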

| Sequence | self-splicing fitness (ln) (30 °C) | self-splicing fitness (ln) (37 °C) |
| --- | --- | --- |
| AGUAAGCAAUAUUACGUAAG | -1.35 ± 0.13 | -1.96 ± 0.23 |
| CUGUAGCAAUAUUACGCAUA | -2.83 ± 0.47 | -2.43 ± 0.41 |
| GGAAAGCAAUAUUACGCCAG | – | -0.912 ± 0.35 |
| CUUUAGCAAUAUUACGAUAU | -3.93 ± 0.35 | -3.25 ± 0.38 |
| AGACAGCAAUAUUACGGACU | -0.583 ± 0.068 | -0.3 ± 0.087 |
| AAUUAGCAAUAUUACGGGAA | -1.88 ± 0.32 | -1.88 ± 0.3 |
| CAGCAGCAAUAUUACGACGA | -1.68 ± 0.13 | -0.501 ± 0.096 |
| UGAAAGCAAUAUUACGUUAU | -3.73 ± 0.19 | -1.76 ± 0.11 |
| CUAUAGCAAUAUUACGCAUU | -5.27 ± 0.38 | -2.95 ± 0.31 |
| CAGGAGCAAUAUUACGAAAU | -2.55 ± 0.33 | – |
| UGGCAGCAAUAUUACGGAGG | -2.38 ± 0.12 | -1.87 ± 0.15 |
| UUACAGCAAUAUUACGGAUC | -4.12 ± 0.34 | -2.26 ± 0.2 |
| AACUAGCAAUAUUACGGUGG | -2.14 ± 0.079 | -0.926 ± 0.086 |
| CCACAGCAAUAUUACGUCCG | -0.456 ± 0.053 | 0.344 ± 0.068 |
| ACUAAGCAAUAUUACGGCUC | -0.0701 ± 0.093 | 0.329 ± 0.11 |
| UCCGAGCAAUAUUACGGUGC | -3.26 ± 0.19 | -2.62 ± 0.22 |
| UUCCAGCAAUAUUACGCUAG | -2.89 ± 0.17 | -1.96 ± 0.2 |
| GGUCAGCAAUAUUACGUUCU | -0.13 ± 0.1 | 0.22 ± 0.11 |
| CAGAAGCAAUAUUACGUUAA | -3.62 ± 0.27 | -3.02 ± 0.43 |

| Sequence | self-splicing fitness (ln) (30 °C) | self-splicing fitness (ln) (37 °C) |
| --- | --- | --- |
| UAGCAGCAAUAUUACGAGAC | -1.84 ± 0.24 | -3.06 ± 0.32 |
| UUUUAGCAAUAUUACGUGCG | -1.42 ± 0.17 | -0.84 ± 0.13 |
| UGGUAGCAAUAUUACGAGCG | -0.4 ± 0.053 | -0.521 ± 0.081 |
| AACCAGCAAUAUUACGGUGC | -3.48 ± 0.16 | -1.75 ± 0.13 |
| UCUAAGCAAUAUUACGAGCA | -1.38 ± 0.15 | -0.145 ± 0.15 |
| AGGGAGCAAUAUUACGAUCA | – | -1.5 ± 0.4 |
| CUAAAGCAAUAUUACGUAAG | -0.149 ± 0.07 | -0.575 ± 0.085 |
| AAGUAGCAAUAUUACGGGAC | -2.43 ± 0.11 | -2.83 ± 0.21 |
| ACUGAGCAAUAUUACGUGUU | -4.1 ± 0.15 | -2.25 ± 0.11 |
| ACAGAGCAAUAUUACGCCAA | -2.92 ± 0.22 | -2.78 ± 0.32 |
| GGAGAGCAAUAUUACGCGUA | -2.02 ± 0.37 | -1.42 ± 0.27 |
| UACUAGCAAUAUUACGGUAG | -1.92 ± 0.11 | -1.09 ± 0.12 |
| UCAUAGCAAUAUUACGCCUU | -3.75 ± 0.4 | -1.52 ± 0.33 |
| GGUCAGCAAUAUUACGUCAA | -0.511 ± 0.071 | 0.0808 ± 0.082 |
| AGAUAGCAAUAUUACGGAUC | -1.92 ± 0.21 | -0.641 ± 0.2 |
| CGAAAGCAAUAUUACGGAGC | -4.16 ± 0.25 | -2.22 ± 0.16 |
| GCCGAGCAAUAUUACGAGGU | -4 ± 0.3 | -2.23 ± 0.25 |
| AGAAAGCAAUAUUACGUAAU | -1.6 ± 0.087 | -1.27 ± 0.12 |
| AGUAAGCAAUAUUACGAAAA | -2.29 ± 0.38 | -1.89 ± 0.33 |
